Values joined by “and” are separate entries in the source; they are usually repeats but may differ in a detail not shown here. Equal values may be shown once. Read-outs that look alike come from different tables or passages of the source.

This note sets out measurements from article PMC7181406.

Assay in all cases: TIRF microscopy
The target in assay [1] is taxol-stabilized microtubules assembled from porcine brain tubulin (porcine) (UniProt P02550).
The target is the same in assay [2]. This is another data set of the same source.
The target is the same in assay [3]. The source holds these as a separate data set.
The target is the same in assay [4]. The source holds these as a separate data set.
The target is the same in assay [5]. This is another data set of the same source.
For assay [6] the target is unchanged. The source holds these as a separate data set.
Assay [7] shares this target. This is another data set of the same source.
Assay [8] has the same target. This is another data set of the same source.
Assay [9] shares this target. This is another data set of the same source.
Assay [10] has the same target. The source holds these as a separate data set.
Assay [11] has the same target. This is another data set of the same source.
Assay [12] shares this target. This is another data set of the same source.
Assay [13] has the same target. The source holds these as a separate data set.

Turning to “p150-mScarlet (from UniProt Q14203-1 1-1278) (natural protein)”, the fluorescence intensity on microtubules in assay [1] was 44200 A.U.
As for “KIF5B_(K-insert)-mScarlet (from UniProt P33176 1-560) (domain or fragment)”, the landing rate (motors μm^−1min^−1nM^−1) came to 5.44 in assay [1], 6.04 in assay [2] and 0.83 in [3].
On to “KIF5B_(1-560)-mScarlet (from UniProt P33176 1-560) (domain or fragment)”, for which the landing rate (motors μm^−1min^−1nM^−1) was 2.72 in assay [4]; 0.11 in assay [1]; 0.05 in assay [5]; 0.03 in assay [6]; 0.01 and 0.005 in [7]; 0.03 in [8]. Moreover, the landing rate (motors μm^−1min^−1nM^−1) is 0.02 in assay [9], 0.07 in assay [10], 0.06 in [11] and 0.58 in assay [12].
For “TMR-GST-dynein motor domain (SNAPf-GST-hDyn) (domain or fragment)”, the fluorescence intensity on microtubules in [1] was 13200 A.U; in [13] it was 13700 A.U.
